Measurements from patent US20240165282A1, “CONFORMATIONAL CONSTRAINED SOMATOSTATIN RECEPTOR 3 PEPTIDE LIGANDS AND THEIR CONJUGATES AND USES THEREOF” (STARGET PHARMA LTD., priority 2021, published 2024).
*1 amine or outer side, *2 acyl side, *3 side chain or, on linkers, in order; H or OH if unused. Bridges are numbered along the chain shown (N, C = ends). [ ]: non-standard residue; d: D form. The star is where a group is joined. DOTA = O=C(O)CN1CCN(CC(=O)O)CCN(CC(=O)*)CCN(CC(=O)O)CC1; N(2-mercaptoethyl)Gly = O=C(CN(CCS[*:3])[*:1])[*:2]; Orn = NCCC[C@H](N)C(=O)O; Aoc = NCCCCCCCC(=O)O

Tests used:
Assay in all cases: Radioligand binding, displacement of 125I-Tyr11-SRIF-14
SSTR3 = SSTR3 (Homo sapiens, UniProt P32745); design: host or cells: CHO (Chinese Hamster Ovary) cells, membrane preparation; conditions: for affinity and selectivity to SSTR3 (in words): binding data; for % displacement of [^125I] Tyr^11-SRIF-14: hSSTR-3
Chain of SSTR3 (P32745 whole entry): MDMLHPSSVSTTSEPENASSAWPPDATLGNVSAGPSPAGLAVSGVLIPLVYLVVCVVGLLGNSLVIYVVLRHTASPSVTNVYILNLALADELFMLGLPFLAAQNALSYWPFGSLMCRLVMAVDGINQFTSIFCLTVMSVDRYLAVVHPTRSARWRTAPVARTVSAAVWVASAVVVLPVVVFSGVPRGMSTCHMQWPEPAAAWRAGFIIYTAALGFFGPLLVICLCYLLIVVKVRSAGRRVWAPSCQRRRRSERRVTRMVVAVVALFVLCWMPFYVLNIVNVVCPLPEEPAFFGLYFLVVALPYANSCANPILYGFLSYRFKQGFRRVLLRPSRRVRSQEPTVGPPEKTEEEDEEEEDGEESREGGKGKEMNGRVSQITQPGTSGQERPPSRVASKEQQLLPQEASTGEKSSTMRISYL
Excerpt: (§1) The binding to human cloned receptors SSTR-1, or SSTR-2 or SSTR-3 evaluated in stable and selective transfected CHO (Chinese Hamster Ovary) cells and binding to STSR-4 and SSTR-5 in stable and selective transfected Chem-1 (Rat ChemiSCREEN) cells. […] The binding reactions were filtered, the filters were washed, and the bound radioactivity was counted using a gamma counter.
(§2) The following table depicts the conditions of binding assay to each of the somatostatin receptors used for the evaluations of binding affinities of the tested peptides. All assays were performed by quantitation method of radioligand binding under 25° C. The vehicle was 1% DMSO, the incubation buffer was 25 mM HEPES, pH 7.4, 5 mM MgCl2, 1 mM CaCl2, 0.1% BSA. […] The significance criteria were >50% of max inhibition. […] This specific binding data used for calculation of Bmax values which is the concentration of each of the expressed cloned receptor in its transfected cell system.
(§3) The Results of IC50 values were determined by a non-linear, least squares regression analysis using MathIQ™ (ID Business Solutions Ltd., UK). […] The Hill coefficient (nH), defining the slope of the competitive binding curve, was calculated using MathIQ™.

hSSTR-4 = molecular target: T1, hSSTR-4 (Homo sapiens, UniProt P31391); conditions: hSSTR-4
T1 construct: host or cells: Chem-1 (Rat ChemiSCREEN) cells, membrane preparation
T1 sequence (P31391 whole entry): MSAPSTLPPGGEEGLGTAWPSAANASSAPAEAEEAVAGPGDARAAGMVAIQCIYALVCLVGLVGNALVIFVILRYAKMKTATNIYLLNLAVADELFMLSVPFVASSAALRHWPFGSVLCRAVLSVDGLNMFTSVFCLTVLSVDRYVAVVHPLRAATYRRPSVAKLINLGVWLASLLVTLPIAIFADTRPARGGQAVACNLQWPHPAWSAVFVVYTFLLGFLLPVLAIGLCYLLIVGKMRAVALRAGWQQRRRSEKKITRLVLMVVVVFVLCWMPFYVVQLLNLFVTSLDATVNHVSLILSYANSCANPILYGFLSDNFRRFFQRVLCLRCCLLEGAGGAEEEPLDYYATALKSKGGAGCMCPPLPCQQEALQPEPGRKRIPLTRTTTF
Excerpt: as §1, §2, §3

SSTR5 = SSTR5 (Homo sapiens, UniProt P35346); design: host or cells: Chem-1 (Rat ChemiSCREEN) cells, membrane preparation; conditions: hSSTR-5
Chain of SSTR5 (P35346 whole entry): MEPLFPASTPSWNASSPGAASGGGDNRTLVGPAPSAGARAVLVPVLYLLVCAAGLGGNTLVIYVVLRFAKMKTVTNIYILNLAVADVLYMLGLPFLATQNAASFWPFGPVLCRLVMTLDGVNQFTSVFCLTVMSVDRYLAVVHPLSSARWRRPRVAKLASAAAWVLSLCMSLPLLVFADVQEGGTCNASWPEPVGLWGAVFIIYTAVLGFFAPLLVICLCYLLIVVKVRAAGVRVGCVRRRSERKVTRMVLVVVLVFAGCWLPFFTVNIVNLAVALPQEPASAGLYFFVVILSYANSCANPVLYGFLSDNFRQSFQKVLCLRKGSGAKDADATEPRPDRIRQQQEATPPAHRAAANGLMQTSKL
Excerpt: as §1, §2, §3

SSTR1 = SSTR1 (Homo sapiens, UniProt P30872); design: host or cells: CHO (Chinese Hamster Ovary) cells, membrane preparation; conditions: hSSTR-1
Chain of SSTR1 (P30872 whole entry): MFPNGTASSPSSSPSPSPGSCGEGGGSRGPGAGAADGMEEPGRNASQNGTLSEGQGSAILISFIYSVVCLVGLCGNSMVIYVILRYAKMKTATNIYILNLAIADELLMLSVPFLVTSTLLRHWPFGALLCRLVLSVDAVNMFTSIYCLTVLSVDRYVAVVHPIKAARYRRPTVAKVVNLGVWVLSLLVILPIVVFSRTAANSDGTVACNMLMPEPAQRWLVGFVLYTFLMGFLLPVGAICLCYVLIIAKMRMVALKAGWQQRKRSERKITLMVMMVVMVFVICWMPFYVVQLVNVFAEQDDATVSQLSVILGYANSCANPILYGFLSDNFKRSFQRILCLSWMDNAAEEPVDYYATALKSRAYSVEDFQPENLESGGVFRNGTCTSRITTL
Excerpt: as §1, §2, §3

SSTR2 = SSTR2 (Homo sapiens, UniProt P30874); design: host or cells: CHO (Chinese Hamster Ovary) cells, membrane preparation; conditions: hSSTR-2
Chain of SSTR2 (P30874 whole entry): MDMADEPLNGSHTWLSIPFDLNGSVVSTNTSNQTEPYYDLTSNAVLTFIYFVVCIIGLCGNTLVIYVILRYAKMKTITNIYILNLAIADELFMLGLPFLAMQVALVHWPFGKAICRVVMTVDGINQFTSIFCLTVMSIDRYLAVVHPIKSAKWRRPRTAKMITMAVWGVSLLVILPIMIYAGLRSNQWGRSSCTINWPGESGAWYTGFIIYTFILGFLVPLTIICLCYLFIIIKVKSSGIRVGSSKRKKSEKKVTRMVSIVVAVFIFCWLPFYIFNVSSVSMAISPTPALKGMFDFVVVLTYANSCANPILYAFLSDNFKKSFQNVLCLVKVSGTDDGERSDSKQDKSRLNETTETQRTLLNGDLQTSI
Excerpt: as §1, §2, §3

Substance: DOTA-Arg^1-Gly^2-Asp^3-D-Phe^4-Arg^5-Cys^6-Phe^7-D-Trp^8-Lys^9-Thr^10-Phe^11-NTEG^12- NH2 (cyclo 6-12) ({DOTA}-RGD[dF]RCF[dW]KTF[N(2-mercaptoethyl)Gly]-NH2; disulfide 6-12; SMILES C[C@@H](O)[C@@H]1NC(=O)[C@H](CCCCN)NC(=O)[C@@H](Cc2c[nH]c3ccccc23)NC(=O)[C@H](Cc2ccccc2)NC(=O)[C@@H](NC(=O)[C@H](CCCNC(=N)N)NC(=O)[C@@H](Cc2ccccc2)NC(=O)[C@H](CC(=O)O)NC(=O)CNC(=O)[C@H](CCCNC(=N)N)NC(=O)CN2CCN(CC(=O)O)CCN(CC(=O)O)CCN(CC(=O)O)CC2)CSSCCN(CC(N)=O)C(=O)[C@H](Cc2ccccc2)NC1=O) [SEQ ID NO: 14]
- affinity and selectivity to SSTR3 (in words) (SSTR3): did not interfere with the affinity and selectivity of SEQ ID NO: 3 to SSTR3
- % displacement of [^125I] Tyr^11-SRIF-14 (SSTR3; at 1 nM (in brackets)): 46%
- % displacement of [^125I] Tyr^11-SRIF-14 (SSTR3; at 10 nM): 89%

Substance: Niraparib-CO(CH2)3CO-D-Phe^1-Arg^2-Cys^3-Phe^4-D-Trp^5-Lys^6-Thr^7-Phe^8-NTEG^9-NH2 cyclo 3-9 [SEQ ID NO: 28]
- % displacement of [^125I] Tyr^11-SRIF-14 (hSSTR-4; at 1 nM (in brackets)): 0(0) %
- % displacement of [^125I] Tyr^11-SRIF-14 (hSSTR-4; at 10 nM): 0(0) %
- % displacement of [^125I] Tyr^11-SRIF-14 (SSTR5; at 1 nM (in brackets)): 0(0) %
- % displacement of [^125I] Tyr^11-SRIF-14 (SSTR5; at 10 nM): 0(0) %
- % displacement of [^125I] Tyr^11-SRIF-14 (SSTR1; at 1 nM (in brackets)): 12%
- % displacement of [^125I] Tyr^11-SRIF-14 (SSTR1; at 10 nM): 23%
- % displacement of [^125I] Tyr^11-SRIF-14 (SSTR2; at 1 nM (in brackets)): 0(0) %
- % displacement of [^125I] Tyr^11-SRIF-14 (SSTR2; at 10 nM): 0(0) %
- affinity to SSTR3 (SSTR3): ≤ 10 nM
- affinity and selectivity to SSTR3 (in words) (SSTR3): the same selectivity to SSTR3 as SEQ ID NO: 1
- % displacement of [^125I] Tyr^11-SRIF-14 (SSTR3; at 1 nM (in brackets)): 28%
- % displacement of [^125I] Tyr^11-SRIF-14 (SSTR3; at 10 nM): 79%

Substance: H-Arg^1-Gly^2-Asp^3-D-Phe^4-Arg^5-Cys^6-Phe^7-D-Trp^8-Lys^9-Thr^10-Phe^11 -NTEG^12-NH^2 (cyclo 6-12) (H-RGD[dF]RCF[dW]KTF[N(2-mercaptoethyl)Gly]-NH2; disulfide 6-12; SMILES C[C@@H](O)[C@@H]1NC(=O)[C@H](CCCCN)NC(=O)[C@@H](Cc2c[nH]c3ccccc23)NC(=O)[C@H](Cc2ccccc2)NC(=O)[C@@H](NC(=O)[C@H](CCCNC(=N)N)NC(=O)[C@@H](Cc2ccccc2)NC(=O)[C@H](CC(=O)O)NC(=O)CNC(=O)[C@@H](N)CCCNC(=N)N)CSSCCN(CC(N)=O)C(=O)[C@H](Cc2ccccc2)NC1=O) [SEQ ID NO: 13]
- % displacement of [^125I] Tyr^11-SRIF-14 (hSSTR-4; at 1 nM (in brackets)): 0(0) %
- % displacement of [^125I] Tyr^11-SRIF-14 (hSSTR-4; at 10 nM): 0(0) %
- % displacement of [^125I] Tyr^11-SRIF-14 (SSTR5; at 1 nM (in brackets)): 0%
- % displacement of [^125I] Tyr^11-SRIF-14 (SSTR5; at 10 nM): 4%
- % displacement of [^125I] Tyr^11-SRIF-14 (SSTR1; at 1 nM (in brackets)): 9%
- % displacement of [^125I] Tyr^11-SRIF-14 (SSTR1; at 10 nM): 15%
- % displacement of [^125I] Tyr^11-SRIF-14 (SSTR2; at 1 nM (in brackets)): 0%
- % displacement of [^125I] Tyr^11-SRIF-14 (SSTR2; at 10 nM): 12%
- affinity and selectivity to SSTR3 (in words) (SSTR3): did not interfere with the affinity and selectivity of SEQ ID NO: 3 to SSTR3
- % displacement of [^125I] Tyr^11-SRIF-14 (SSTR3; at 1 nM (in brackets)): 36%
- % displacement of [^125I] Tyr^11-SRIF-14 (SSTR3; at 10 nM): 78%

Substance: DOTA-8-aminooctanoic acid-D-Phe^1-Arg^2-Cys^3-Phe4-D-Trp^5-Lys^6-Thr^7-Phe^8-NTEG^9-NH^2(cyclo 3-9) ({DOTA-Aoc}-[dF]RCF[dW]KTF[N(2-mercaptoethyl)Gly]-NH2; disulfide 3-9) [SEQ ID NO: 15]
- % displacement of [^125I] Tyr^11-SRIF-14 (hSSTR-4; at 1 nM (in brackets)): 0(0) %
- % displacement of [^125I] Tyr^11-SRIF-14 (hSSTR-4; at 10 nM): 0(0) %
- % displacement of [^125I] Tyr^11-SRIF-14 (SSTR5; at 1 nM (in brackets)): 0(0) %
- % displacement of [^125I] Tyr^11-SRIF-14 (SSTR5; at 10 nM): 0(0) %
- % displacement of [^125I] Tyr^11-SRIF-14 (SSTR1; at 1 nM (in brackets)): 6%
- % displacement of [^125I] Tyr^11-SRIF-14 (SSTR1; at 10 nM): 18%
- % displacement of [^125I] Tyr^11-SRIF-14 (SSTR2; at 1 nM (in brackets)): 1%
- % displacement of [^125I] Tyr^11-SRIF-14 (SSTR2; at 10 nM): 0%
- % displacement of [^125I] Tyr^11-SRIF-14 (SSTR3; at 1 nM (in brackets)): 49%
- % displacement of [^125I] Tyr^11-SRIF-14 (SSTR3; at 10 nM): 87%

Substance: DOTA-D-Phe^1-Glu^2-Glu^3-Orn^4-Cys^5-Phe^6-D-Trp^7-Lys^8-Thr^9-Phe^10-NTEG^11-NH2 (cyclo 5-11) ({DOTA}-[dF]EE[Orn]CF[dW]KTF[N(2-mercaptoethyl)Gly]-NH2; disulfide 5-11; SMILES C[C@@H](O)[C@@H]1NC(=O)[C@H](CCCCN)NC(=O)[C@@H](Cc2c[nH]c3ccccc23)NC(=O)[C@H](Cc2ccccc2)NC(=O)[C@@H](NC(=O)[C@H](CCCN)NC(=O)[C@H](CCC(=O)O)NC(=O)[C@H](CCC(=O)O)NC(=O)[C@@H](Cc2ccccc2)NC(=O)CN2CCN(CC(=O)O)CCN(CC(=O)O)CCN(CC(=O)O)CC2)CSSCCN(CC(N)=O)C(=O)[C@H](Cc2ccccc2)NC1=O) [SEQ ID NO: 22]
- % displacement of [^125I] Tyr^11-SRIF-14 (hSSTR-4; at 1 nM (in brackets)): 0%
- % displacement of [^125I] Tyr^11-SRIF-14 (hSSTR-4; at 10 nM): 3%
- % displacement of [^125I] Tyr^11-SRIF-14 (SSTR5; at 1 nM (in brackets)): 0(0) %
- % displacement of [^125I] Tyr^11-SRIF-14 (SSTR5; at 10 nM): 0(0) %
- % displacement of [^125I] Tyr^11-SRIF-14 (SSTR1; at 1 nM (in brackets)): 8%
- % displacement of [^125I] Tyr^11-SRIF-14 (SSTR1; at 10 nM): 7%
- % displacement of [^125I] Tyr^11-SRIF-14 (SSTR2; at 1 nM (in brackets)): 0(0) %
- % displacement of [^125I] Tyr^11-SRIF-14 (SSTR2; at 10 nM): 0(0) %
- affinity and selectivity to SSTR3 (in words) (SSTR3): did not interfere with the affinity and selectivity to SSTR3
- % displacement of [^125I] Tyr^11-SRIF-14 (SSTR3; at 1 nM (in brackets)): 0%
- % displacement of [^125I] Tyr^11-SRIF-14 (SSTR3; at 10 nM): 49%
